The supplement of paper PMC9112550, “Optimization of the antimicrobial peptide Bac7 by deep mutational scanning” (BMC Biology, 2022)

Tested on: Escherichia coli TOP10
Test: shrunken log2 fold change of peptide-encoding DNA abundance (4.5 h post-induction vs induction); higher = less antimicrobial activity (less host growth inhibition)
Settings: time post-induction: 4.5 h; library: site-saturation at positions 5, 18, 19, 20
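Also: peptides expressed intracellularly from a pBAD plasmid library in pooled LB shake-flask culture, induced with 0.3% L-arabinose, DNA abundance read by NGS, three biological replicates, DESeq2 with apeglm shrinkage.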

Sequence | shrunken log2 fold change
RRIRLRPPRLPRPRPRPLKTPRP | -0.0135
RRIRLRPPRLPRPRPRPLLVPRP | -0.12
RRIRLRPPRLPRPRPRPLMDPRP | -0.0257
RRIRLRPPRLPRPRPRPLNQPRP | -0.917
RRIRLRPPRLPRPRPRPLQDPRP | 0.0629
RRIRLRPPRLPRPRPRPLQLPRP | 0.267
RRIRLRPPRLPRPRPRPLQWPRP | 0.126
RRIRLRPPRLPRPRPRPLRAPRP | 0.709
RRIRLRPPRLPRPRPRPLRGPRP | 1.11
RRIRLRPPRLPRPRPRPLRMPRP | 0.222
RRIRLRPPRLPRPRPRPLSAPRP | 0.0846
RRIRLRPPRLPRPRPRPLSTPRP | -0.471
RRIRLRPPRLPRPRPRPLTNPRP | -0.325
RRIRLRPPRLPRPRPRPLWDPRP | 0.466
RRIRLRPPRLPRPRPRPLYEPRP | -0.488
RRIRLRPPRLPRPRPRPLYLPRP | -0.837
RRIRLRPPRLPRPRPRPLYMPRP | -0.763
RRIRLRPPRLPRPRPRPLYRPRP | -0.0861
RRIRLRPPRLPRPRPRPMAEPRP | 0.141
RRIRLRPPRLPRPRPRPMAMPRP | 0.0591
RRIRLRPPRLPRPRPRPMCDPRP | -0.481
RRIRLRPPRLPRPRPRPMCLPRP | -0.166
RRIRLRPPRLPRPRPRPMHRPRP | -0.274
RRIRLRPPRLPRPRPRPMIDPRP | -0.0169
RRIRLRPPRLPRPRPRPMIKPRP | 0.0349

Sequence | shrunken log2 fold change
RRIRLRPPRLPRPRPRPMIMPRP | -0.159
RRIRLRPPRLPRPRPRPMKRPRP | -0.0358
RRIRLRPPRLPRPRPRPMLRPRP | 0.0543
RRIRLRPPRLPRPRPRPMMPPRP | -0.174
RRIRLRPPRLPRPRPRPMNIPRP | -0.504
RRIRLRPPRLPRPRPRPMNVPRP | -0.839
RRIRLRPPRLPRPRPRPMNYPRP | -0.0583
RRIRLRPPRLPRPRPRPMPIPRP | 0.301
RRIRLRPPRLPRPRPRPMPKPRP | -0.105
RRIRLRPPRLPRPRPRPMPQPRP | 0.164
RRIRLRPPRLPRPRPRPMPTPRP | 0.449
RRIRLRPPRLPRPRPRPMQKPRP | -0.0247
RRIRLRPPRLPRPRPRPMRKPRP | 0.651
RRIRLRPPRLPRPRPRPMRPPRP | 1.44
RRIRLRPPRLPRPRPRPMSKPRP | 0.0198
RRIRLRPPRLPRPRPRPMSNPRP | -0.089
RRIRLRPPRLPRPRPRPMSPPRP | 0.0855
RRIRLRPPRLPRPRPRPMTKPRP | 0.0751
RRIRLRPPRLPRPRPRPMVVPRP | -0.0179
RRIRLRPPRLPRPRPRPMWFPRP | 0.106
RRIRLRPPRLPRPRPRPMWIPRP | -0.199
RRIRLRPPRLPRPRPRPMYDPRP | -0.787
RRIRLRPPRLPRPRPRPMYPPRP | -0.0826
RRIRLRPPRLPRPRPRPNADPRP | 0.126
RRIRLRPPRLPRPRPRPNAQPRP | -0.0471

Sequence | shrunken log2 fold change
RRIRLRPPRLPRPRPRPNCLPRP | -0.61
RRIRLRPPRLPRPRPRPNDKPRP | -0.962
RRIRLRPPRLPRPRPRPNDQPRP | -0.19
RRIRLRPPRLPRPRPRPNGHPRP | -0.0365
RRIRLRPPRLPRPRPRPNLGPRP | -0.0507
RRIRLRPPRLPRPRPRPNLVPRP | -0.283
RRIRLRPPRLPRPRPRPNNSPRP | -0.952
RRIRLRPPRLPRPRPRPNPAPRP | -0.0363
RRIRLRPPRLPRPRPRPNPHPRP | -0.07
RRIRLRPPRLPRPRPRPNQFPRP | 0.0261
RRIRLRPPRLPRPRPRPNQNPRP | -0.276
RRIRLRPPRLPRPRPRPNQYPRP | -0.126
RRIRLRPPRLPRPRPRPNRAPRP | 0.0133
RRIRLRPPRLPRPRPRPNRTPRP | 0.0829
RRIRLRPPRLPRPRPRPNRVPRP | -0.0939
RRIRLRPPRLPRPRPRPNSAPRP | 0.0654
RRIRLRPPRLPRPRPRPNSLPRP | -0.101
RRIRLRPPRLPRPRPRPNSPPRP | -0.418
RRIRLRPPRLPRPRPRPNTIPRP | -0.796
RRIRLRPPRLPRPRPRPNTNPRP | -0.576
RRIRLRPPRLPRPRPRPNTRPRP | -0.273
RRIRLRPPRLPRPRPRPNTSPRP | -0.333
RRIRLRPPRLPRPRPRPNVPPRP | -0.213
RRIRLRPPRLPRPRPRPNWCPRP | 0.374
RRIRLRPPRLPRPRPRPNWFPRP | -0.00982

Sequence | shrunken log2 fold change
RRIRLRPPRLPRPRPRPNWRPRP | 0.292
RRIRLRPPRLPRPRPRPNYIPRP | -0.301
RRIRLRPPRLPRPRPRPNYKPRP | -0.752
RRIRLRPPRLPRPRPRPNYYPRP | -0.773
RRIRLRPPRLPRPRPRPPDDPRP | 0.397
RRIRLRPPRLPRPRPRPPDFPRP | -0.0501
RRIRLRPPRLPRPRPRPPDMPRP | -0.111
RRIRLRPPRLPRPRPRPPDQPRP | 0.349
RRIRLRPPRLPRPRPRPPEPPRP | 0.232
RRIRLRPPRLPRPRPRPPERPRP | 0.566
RRIRLRPPRLPRPRPRPPEVPRP | -0.0157
RRIRLRPPRLPRPRPRPPEWPRP | 0.682
RRIRLRPPRLPRPRPRPPFIPRP | -0.635
RRIRLRPPRLPRPRPRPPFNPRP | -0.116
RRIRLRPPRLPRPRPRPPFQPRP | 0.0582
RRIRLRPPRLPRPRPRPPKCPRP | 0.213
RRIRLRPPRLPRPRPRPPKGPRP | 0.306
RRIRLRPPRLPRPRPRPPLRPRP | 0.386
RRIRLRPPRLPRPRPRPPMLPRP | -0.0338
RRIRLRPPRLPRPRPRPPMSPRP | 0.0743
RRIRLRPPRLPRPRPRPPNEPRP | -0.0407
RRIRLRPPRLPRPRPRPPSFPRP | -0.244
RRIRLRPPRLPRPRPRPPSWPRP | 0.0349
RRIRLRPPRLPRPRPRPPTAPRP | 0.228
RRIRLRPPRLPRPRPRPPTEPRP | 0.296

Sequence | shrunken log2 fold change
RRIRLRPPRLPRPRPRPPVRPRP | 0.426
RRIRLRPPRLPRPRPRPPWFPRP | 0.165
RRIRLRPPRLPRPRPRPPWRPRP | 0.445
RRIRLRPPRLPRPRPRPPYLPRP | -0.0206
RRIRLRPPRLPRPRPRPPYRPRP | -0.0286
RRIRLRPPRLPRPRPRPPYSPRP | -0.125
RRIRLRPPRLPRPRPRPPYWPRP | 0.106
RRIRLRPPRLPRPRPRPQAQPRP | 0.0698
RRIRLRPPRLPRPRPRPQCHPRP | 0.0598
RRIRLRPPRLPRPRPRPQCIPRP | -0.0123
RRIRLRPPRLPRPRPRPQCTPRP | 0.0199
RRIRLRPPRLPRPRPRPQCWPRP | -0.0159
RRIRLRPPRLPRPRPRPQDFPRP | 0.0788
RRIRLRPPRLPRPRPRPQDGPRP | -0.0806
RRIRLRPPRLPRPRPRPQDIPRP | 0.133
RRIRLRPPRLPRPRPRPQDSPRP | -0.276
RRIRLRPPRLPRPRPRPQEFPRP | 0.00998
RRIRLRPPRLPRPRPRPQESPRP | 0.133
RRIRLRPPRLPRPRPRPQEYPRP | -0.846
RRIRLRPPRLPRPRPRPQFGPRP | -0.291
RRIRLRPPRLPRPRPRPQGEPRP | 0.125
RRIRLRPPRLPRPRPRPQHDPRP | -0.0854
RRIRLRPPRLPRPRPRPQHEPRP | -0.0398
RRIRLRPPRLPRPRPRPQIAPRP | -0.0971
RRIRLRPPRLPRPRPRPQIKPRP | -0.187

Sequence | shrunken log2 fold change
RRIRLRPPRLPRPRPRPQKFPRP | 0.0452
RRIRLRPPRLPRPRPRPQKSPRP | -0.139
RRIRLRPPRLPRPRPRPQLGPRP | -0.0132
RRIRLRPPRLPRPRPRPQLRPRP | -0.00627
RRIRLRPPRLPRPRPRPQMTPRP | -0.0928
RRIRLRPPRLPRPRPRPQNMPRP | -0.232
RRIRLRPPRLPRPRPRPQPPPRP | 0.517
RRIRLRPPRLPRPRPRPQQAPRP | -0.0623
RRIRLRPPRLPRPRPRPQQCPRP | 0.146
RRIRLRPPRLPRPRPRPQQRPRP | -0.299
RRIRLRPPRLPRPRPRPQQYPRP | -0.277
RRIRLRPPRLPRPRPRPQSPPRP | -0.0515
RRIRLRPPRLPRPRPRPQSRPRP | -0.377
RRIRLRPPRLPRPRPRPQSTPRP | -0.0595
RRIRLRPPRLPRPRPRPQVKPRP | -0.319
RRIRLRPPRLPRPRPRPQVMPRP | -0.0202
RRIRLRPPRLPRPRPRPQYVPRP | 0.0564
RRIRLRPPRLPRPRPRPRAAPRP | 0.417
RRIRLRPPRLPRPRPRPRAQPRP | 0.423
RRIRLRPPRLPRPRPRPRCAPRP | 0.504
RRIRLRPPRLPRPRPRPRCMPRP | -0.0665
RRIRLRPPRLPRPRPRPRDTPRP | -0.0364
RRIRLRPPRLPRPRPRPRFLPRP | -0.144
RRIRLRPPRLPRPRPRPRFMPRP | -0.244
RRIRLRPPRLPRPRPRPRGFPRP | 0.124
